Measured values published in patent publication US8648041 (Novo Nordisk, dated 2014).
Numbered stars: 1 amine (or outer) side, 2 acyl side, 3 side chain; on linkers, the order of the positions; unused ones are H or OH. Square brackets hold non-standard residues; d marks the D form. Side chains are listed from the residue outwards. Ends that are not written are not given here. * marks the point of attachment. 9‑(4-carboxyphenoxy)nonanoyl = O=C(O)c1ccc(OCCCCCCCCC(=O)*)cc1; 8‑(4-carboxyphenoxy)octanoyl = O=C(O)c1ccc(OCCCCCCCC(=O)*)cc1; Malonyl(2,2-Me2,histaminyl) = CC(C)(C(=O)NCCc1cnc[nH]1)C(=O)*; Decanoyl(10-(4-HOOC-PhO)) = O=C(O)c1ccc(OCCCCCCCCCC(=O)*)cc1; γGlu = O=C(O)[C@H](CCC(=O)[*:2])N[*:1]; C14 diacid = O=C(O)CCCCCCCCCCCCC(=O)*; C12 diacid = O=C(O)CCCCCCCCCCC(=O)*; AEEA = NCCOCCOCC(=O)O; Aib = CC(C)(N)C(=O)O

Assays:
human GLP-1 receptor [1] = molecular target: T1, human GLP-1 receptor (human, UniProt P43220 24-463); test: SPA, displacement of 125I-GLP-1(7-36)NH2 from membranes with human GLP-1 receptor, 0.005% HSA
T1 construct: whole, on cells; Used as membrane preparations of the transfected hamster (BHK) cell line, not as whole cells; also called hGLP-1/BHK 467-12A membranes
Source text: (§1) A shift in the binding affinity, $IC50$, is an indication that the peptide in question binds to albumin, and thereby a prediction of a potential protracted pharmacokinetic profile of the peptide in question in animal models. Conditions Species (in vitro): Hamster Biological End Point: Receptor Binding Assay Method: SPA Receptor: GLP-1 receptor Cell Line: BHK tk-ts13 Cell Culture and Membrane Purification A stable transfected cell line and a high expressing clone were selected for screening. The cells were grown at 5% CO_2 in DMEM, 10% FCS, 1% Pen/Strep (Penicillin/Streptomycin) and 1.0 mg/ml of the selection marker G418.
(§2) 25 ul (micro liter) of test compounds were added to Optiplate. HSA ("high albumin" experiment containing 2% HSA), or buffer ("low albumin" experiment containing 0.005% HSA), was added (50 ul). 5-10 ug protein/sample was added (50 ul) corresponding to 0.1-0.2 mg protein/ml (to be preferably optimised for each membrane preparation). SPA-particles (Wheatgerm agglutinin SPA beads, Perkin Elmer, #RPNQ0001) were added in an amount of 0.5 mg/well (50 ul). […] The plates were sealed with PlateSealer and incubated for 120 minutes at 30° C. while shaking. The plates were centrifuged (1500 rpm, 10 min) and counted in Topcounter. Assay Buffer: 50 mM HEPES 5 mM EGTA 5 mM MgCl2 0.005% Tween™ 20 pH 7.4 HSA was SIGMA A1653.

human GLP-1 receptor [2] = molecular target: T1, human GLP-1 receptor; test: SPA, displacement of 125I-GLP-1(7-36)NH2 from membranes with human GLP-1 receptor, 2.0% HSA
Source text: as §1, §2

Binder | IC50 (human GLP-1 receptor [1]) [µM] | IC50 (human GLP-1 receptor [2]) [µM]
{Malonyl(2,2-Me2,histaminyl)}-EGTFTSDVSSYLEGQAAK([AEEA-AEEA-γGlu-Decanoyl(10-(4-HOOC-PhO))])EFIAWLVRGRK([AEEA-AEEA-γGlu-Decanoyl(10-(4-HOOC-PhO))])E (also called Chem. 41) [N^9-{2-[2-(1H-Imidazol-4-yl)ethylcarbamoyl]-2-methylpropionyl}, …] | < 0.6 | ≤ 1
{2,2‑dimethyl‑3‑oxo‑3‑(pyridin-2-ylmethylamino)propanoyl}-EGTFTSDVSSYLEGQAAK([AEEA-AEEA-γGlu-Decanoyl(10-(4-HOOC-PhO))])EFIAWLVRGRK([AEEA-AEEA-γGlu-Decanoyl(10-(4-HOOC-PhO))]) (also called Chem. 60) [N{9}-[2,2-dimethyl-3-oxo-3-(pyridin-2-ylmethylamino)propanoyl], …] | < 0.6 | ≤ 1
HAEGTFTSDVSSYLEGQAAK([γGlu-AEEA-AEEA-C14 diacid])EFIAWLVRGRK([γGlu-AEEA-AEEA-C14 diacid]) | < 0.6 | ≤ 1
{Malonyl(2,2-Me2,histaminyl)}-EGTFTSDVSSYLEGQAAKEFIAWLVRGRK (not fully specified (residues 18, 29); printed as N^9-{2-[2-(1H-Imidazol-4-yl)-ethylcarbamoyl]-2-methylpropionyl}-N^ε26-{2-[2-(2-{2-[2-(2-{(S)-4-[4-(4-tert-Butylphenyl)butyrylamino]-4-carboxybutyrylamino}ethoxy)ethoxy]acetylamino}ethoxy)ethoxy]acetyl}, N^ε37-{2-[2-(2-{2-[2-(2-{(S)-4-[4-(4-tert-Butylphenyl)butyrylamino]-4-carboxybutyrylamino}ethoxy)ethoxy]acetylamino}ethoxy)ethoxy]acetyl}[Arg^34, Lys^37]GLP-1(9-37)-peptide, also called Chem. 46) | < 0.6 | ≤ 1
HAEGTFTSDVSSYLEGQAAK([AEEA-AEEA-γGlu-Decanoyl(10-(4-HOOC-PhO))])EFIAWLVRGRK([AEEA-AEEA-γGlu-Decanoyl(10-(4-HOOC-PhO))]) | < 0.6 | ≤ 1
HAEGTFTSDVSSYLEGQAAK([AEEA-AEEA-γGlu-C14 diacid])EFIAHLVQGRK([AEEA-AEEA-γGlu-C14 diacid]) (also called Chem. 53) | < 0.6 | ≤ 1
HAEGTFTSDVSSYLEGQAAK([AEEA-AEEA-γGlu-C12 diacid])EFIAHLVQGRK([AEEA-AEEA-γGlu-C12 diacid]) (also called Chem. 54) | < 0.6 | ≤ 1
HAQGTFTSDVSSYLEGQAAK([AEEA-AEEA-γGlu-Decanoyl(10-(4-HOOC-PhO))])EFIAWLVRGRK([AEEA-AEEA-γGlu-Decanoyl(10-(4-HOOC-PhO))]) | < 0.6 | ≤ 1
HAEGTFTSDVSSYLEGQAAK([AEEA-AEEA-γGlu-Decanoyl(10-(4-HOOC-PhO))])EFIAWLVRGGK([AEEA-AEEA-γGlu-Decanoyl(10-(4-HOOC-PhO))]) | < 0.6 | ≤ 1
HAEGTFTSDVSSYLEGQAAK([AEEA-AEEA-γGlu-Decanoyl(10-(4-HOOC-PhO))])EFIEWLVRGRK([AEEA-AEEA-γGlu-Decanoyl(10-(4-HOOC-PhO))]) | < 0.6 | ≤ 1
HAEGTFTSDVSSYLEGQAAK([AEEA-AEEA-γGlu-8‑(4-carboxyphenoxy)octanoyl])EFIAWLVRGGK([AEEA-AEEA-γGlu-8‑(4-carboxyphenoxy)octanoyl]) | < 0.6 | ≤ 1
HAEGTFTSDVSSYLEGQAAK([γGlu-AEEA-AEEA-Decanoyl(10-(4-HOOC-PhO))])EFIAHLVQGRK([γGlu-AEEA-AEEA-Decanoyl(10-(4-HOOC-PhO))]) (also called Chem. 55) | < 0.6 | ≤ 1
HAEGTFTSDVSSYLEGQAAK([AEEA-AEEA-γGlu-Decanoyl(10-(4-HOOC-PhO))])EFIAHLVQGRK([AEEA-AEEA-γGlu-Decanoyl(10-(4-HOOC-PhO))]) (also called Chem. 52) | < 0.6 | ≤ 1
HAEGTFTSDVSSYLEGQAAK([AEEA-AEEA-γGlu-9‑(4-carboxyphenoxy)nonanoyl])EFIAWLVRGRK([AEEA-AEEA-γGlu-9‑(4-carboxyphenoxy)nonanoyl]) | < 0.6 | ≤ 1
XAEGTFTSDVSSYLEGQAAKEFIAWLVRGRK (Imp (imidazopropionic acid, des-amino histidine) at 7; Lys26 and Lys37 each acylated at the epsilon-amino group with 10-(4-carboxyphenoxy)decanoyl-gammaGlu-OEG-OEG (GLP-1(7-37) numbering)) | < 0.6 | ≤ 1
HAEGTFTSDVSSYLEGQAAK([AEEA-AEEA-γGlu-Decanoyl(10-(4-HOOC-PhO))])EFIAWLVRGRK([AEEA-AEEA-γGlu-Decanoyl(10-(4-HOOC-PhO))])G (the added Gly38 is therefore written as a second piece) | < 0.6 | ≤ 1
HAEGTFTSDVSSYLEGQAAK([AEEA-AEEA-γGlu-Decanoyl(10-(4-HOOC-PhO))])EFIAWLVRGRK([AEEA-AEEA-γGlu-Decanoyl(10-(4-HOOC-PhO))])E (also called Chem. 65) | < 0.6 | ≤ 1
HAEGTFTSDVSSYLEGQAAK([AEEA-AEEA-γGlu-C14 diacid])EFIAWLVRGRK([AEEA-AEEA-γGlu-C14 diacid]) | < 0.6 | ≤ 1
{Malonyl(2,2-Me2,histaminyl)}-EGTFTSDVSSYLEGQAAK([AEEA-AEEA-γGlu-Decanoyl(10-(4-HOOC-PhO))])EFIAWLVRGRK([AEEA-AEEA-γGlu-Decanoyl(10-(4-HOOC-PhO))]) (also called Chem. 42) | < 0.6 | ≤ 1
HAEGTFTSDVSSYLEGQAAK([AEEA-AEEA-γGlu-8‑(4-carboxyphenoxy)octanoyl])EFIAWLVRGRK([AEEA-AEEA-γGlu-8‑(4-carboxyphenoxy)octanoyl]) | < 0.6 | ≤ 1
HXEGTFTSDVSSYLEGQAAKEFIAHLVQGRK (Aib at 8; Lys26 and Lys37 each acylated at the epsilon-amino group with 10-(4-carboxyphenoxy)decanoyl-gammaGlu-OEG-OEG (GLP-1(7-37) numbering, His = 7), also called Chem. 36) | < 0.6 | ≤ 1
H[Aib]EGTFTSDVSSYLEGRAAK([AEEA-AEEA-γGlu-Decanoyl(10-(4-HOOC-PhO))])EFIAWLVRGRK([AEEA-AEEA-γGlu-Decanoyl(10-(4-HOOC-PhO))]) | < 0.6 | ≤ 1
H[Aib]GGTFTSDVSSYLEGQAAK([AEEA-AEEA-γGlu-Decanoyl(10-(4-HOOC-PhO))])EFIAWLVRGRK([AEEA-AEEA-γGlu-Decanoyl(10-(4-HOOC-PhO))]) | < 0.6 | ≤ 1
HXEGTFTSDVSSYLEGQAAKEFIAHLVQGRK (Aib at 8; Lys26 and Lys37 each acylated at the epsilon-amino group with 11-carboxyundecanoyl-gammaGlu-OEG-OEG (GLP-1(7-37) numbering, His = 7), also called Chem. 40) | < 0.6 | ≤ 1
